Experimental data from patent US11820827B2, “Methods of treating myelodysplastic syndrome and acute myeloid leukemia with nonfucosylated anti-CD70 antibodies” (Seagen Inc., priority 2019, dated 2023).
“And” between values parts separate entries of the source, which are not always exact repeats. Equal values may be shown once.

Key:
[1] = target: T1, hFcγRIIIa V158 (Homo sapiens, UniProt P08637, F176V); test: BLI binding kinetics to high affinity FcγRIIIa (158V) receptor variant; conditions: versus SGN-70
T1 construct: made in house

[2] = target: T2, high affinity human FcγRIIIa receptor (158V) (Homo sapiens, UniProt P08637, F176V); test: CHO-FcγRIIIa binding assay by flow cytometry (human receptor); conditions: compared with SGN-70
T2 construct: expressed in transfected cells; host or cells: CHO
Protocol: (§1) While BLI methodology is used to assess receptor affinity by monitoring binding kinetics, it is primarily set to monitor monovalent binding. To add to BLI data sets, flow cytometry was also performed (FIGS. 2A and 2B).
(§2) The CHO-FcγRIIIa binding assay was conducted as follows: • 1. Thaw cells: Cells were thawed on 11 Jun. 2019, and cultured in culture medium for 1 week to recover from freeze-thaw.
(§3) • 2. Wash: 60 million cells were washed 1× in PBS in 50-mL tubes. Cells were counted again and resuspended at 2.2×10^6/mL. Then 0.1 mL was pipetted per well • 3. Make 10× dilutions of antibody: The 10× dilutions were prepared (3 mg/mL, 1 mg/mL, 0.3 mg/mL, 0.1 mg/mL, 0.03 mg/mL, 0.01 mg/mL, 0.003 mg/mL, 0.001 mg/mL, and 0.0003 mg/mL in the dilution plate).
(§4) • 4. Aspirate: Wash was aspirated in wells and 100 μL of the corresponding antibody dilutions was pipetted with a multichannel pipet. The corresponding concentrations were 300, 100, 30, 10, 3, 1, […] μg/mL in triplicate. The concentrations were decreased vertically down the 96-well round bottom plate. • 5. […] Analyze samples: Samples were analyzed by flow cytometry in high throughput sampler (HTS) mode on the Attune. Median fluorescence intensity (MFI) was graphed (geomean), and equilibrium dissociation constant (KD) for each was calculated in PRIZM

[3] = target: T3, cynomolgus FcγRIIIa receptor (Macaca fascicularis, UniProt Q8SPW2); test: CHO-FcγRIIIa binding assay by flow cytometry (cynomolgus receptor); conditions: compared with SGN-70
T3 construct: expressed in transfected cells; host or cells: CHO
Protocol: as §1, §2, §3, §4

[4] = tested on: Raji NHL Burkitt Lymphoma model; test: Survival in the Raji NHL Burkitt Lymphoma mouse model; assay type: in vivo, SCID mice; conditions: for median survival post implant: untreated 20 days
[5] = tested on: MV-411 acute myeloid leukemia model; test: Tumor growth in the MV-411 acute myeloid leukemia xenograft model (Example 7); assay type: in vivo, SCID mice; conditions: for tumor volume, individual animals: h1F6SEA 10 mg/kg Q4dx4
[6] = tested on: NOMO-1 CD70+ target cells; test: ADCP with monocyte-derived macrophages, NOMO-1; assay type: cell-based, human; conditions: flow cytometry, antibody dose-dependent
Protocol: Phagocytosis of fluorescently labeled target cells was determined by flow cytometry. Phagocytosis was measured for the appearance of double-labeled coincident events (fluorescent target cells) and anti-CD11c positivity to identify monocyte/macrophages.
The following protocol was used to assess […] activity on AML cell lines: • 1. Target cells were labeled using the PKH26 Red Fluorescent Cell Linker Mini Kit (Sigma Aldrich) and following the manufacturer's instructions. • 2. Cells (4000 cells/well) were incubated with the indicated test articles for 30 minutes, washed and resuspended in RPMI plus 10% ultra-low IgG FBS. • 3. PBMC-derived macrophages (100,000 cells/well), generated by incubating PBMC-derived monocytes with 500 U/mL (50 ng/mL) GM-CSF for 10-12 days, were added to the target cells and incubated at 37° C. for 2 hours. • 4. Plates were centrifuged and cells resuspended in 100 μl of APC-CD11 antibody (macrophage marker) and incubated on ice for 30 minutes. • 5. Cells were washed, resuspended in PBS and analyzed by flow cytometry to determine the percentage of phagocytosis

[7] = tested on: MOLM-13 CD70+ AML cell line; test: CDC with normal human serum, MOLM-13; assay type: cell-based; conditions: normal human serum not heat inactivated
Protocol: AML cell lines positive for CD70 were fluorescently labeled and treated with increasing concentrations of CD70 directed antibodies. Cells were then exposed to human compliment and lysis determined as release of fluorescent dye.
The following protocol was used to assess CDC activity on AML cell lines: • 1. Cells were incubated with […] anti-CRP monoclonal antibodies mix (anti-hCD46, anti-hCD55, anti-hCD59) for 30 minutes on ice. • 2. Cells were washed and plated (200,000 cells/well) in media containing non-heat-inactivated serum, Sytox Green (Life technology), and antibodies, which were added at the indicated final concentration, for 2 hours at 37° C. • 3. Cell dead was quantified by detecting Sitox Green fluorescent signal on an Envison plate reader (Perkin Elmer) and normalized over positive control (1% Triton X-100 treated cells).

[8] = tested on: MV4-11 AML xenograft; test: Tumor growth in the MV4-11 AML xenograft model, SEA-CD70 and azacitidine (Example 10); assay type: in vivo, SCID mice

T1 sequence (P08637 17-208 F176V): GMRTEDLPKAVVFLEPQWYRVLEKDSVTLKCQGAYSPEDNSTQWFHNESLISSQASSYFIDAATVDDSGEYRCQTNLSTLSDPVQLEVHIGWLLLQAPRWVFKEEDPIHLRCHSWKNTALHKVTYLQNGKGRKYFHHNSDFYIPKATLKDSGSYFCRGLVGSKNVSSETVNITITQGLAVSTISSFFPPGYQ
T2 sequence (P08637 17-254 F176V): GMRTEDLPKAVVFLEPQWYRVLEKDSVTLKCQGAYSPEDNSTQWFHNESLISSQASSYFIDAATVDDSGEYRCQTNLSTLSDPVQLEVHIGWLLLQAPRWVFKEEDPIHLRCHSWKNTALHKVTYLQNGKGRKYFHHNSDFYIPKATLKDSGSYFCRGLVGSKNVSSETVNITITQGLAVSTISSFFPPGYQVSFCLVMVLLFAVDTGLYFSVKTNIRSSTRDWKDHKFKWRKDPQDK
T3 sequence (Q8SPW2 17-254): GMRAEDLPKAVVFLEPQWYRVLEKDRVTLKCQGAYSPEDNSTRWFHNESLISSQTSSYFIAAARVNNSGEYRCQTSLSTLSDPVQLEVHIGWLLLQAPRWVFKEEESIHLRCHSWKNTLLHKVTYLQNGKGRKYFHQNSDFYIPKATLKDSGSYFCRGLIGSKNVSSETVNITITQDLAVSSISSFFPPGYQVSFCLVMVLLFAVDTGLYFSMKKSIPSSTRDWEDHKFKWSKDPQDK

B1: SEA-CD70: humanized, nonfucosylated monoclonal IgG1 antibody targeting CD70 (nonfucosylated h1F6) (antibody, chains of the INN, looked up, V domains shown)
VH: QVQLVQSGAEVKKPGASVKVSCKASGYTFTNYGMNWVRQAPGQGLKWMGWINTYTGEPTYADAFKGRVTMTRDTSISTAYMELSRLRSDDTAVYYCARDYGDYGMDYWGQGTTVTVSS
VL: DIVMTQSPDSLAVSLGERATINCRASKSVSTSGYSFMHWYQQKPGQPPKLLIYLASNLESGVPDRFSGSGSGTDFTLTISSLQAEDVAVYYCQHSREVPWTFGQGTKVEIK
modifications: nonfucosylated
increase in binding affinity for the FcγRIIIa (158V) receptor [1]: 8 fold
binding affinity to human FcγRIIIa on CHO cells [2]: bound with higher affinity than SGN-70
binding affinity to cynomolgus FcγRIIIa on CHO cells [3]: bound with higher affinity than SGN-70
median survival post implant ([4]; 0.3 mg/kg Q4dx4 intraperitoneally): 36.5 days
median survival post implant ([4]; 1 mg/kg Q4dx4 intraperitoneally): 68 days
total number of animals in group ([4]; 1 mg/kg, day 0): 8
total number of animals in group ([4]; 1 mg/kg, day 23): 8
total number of animals in group ([4]; 1 mg/kg, day 30): 7
total number of animals in group ([4]; 1 mg/kg, day 54): 6
total number of animals in group ([4]; 1 mg/kg, day 61): 5
total number of animals in group ([4]; 1 mg/kg, day 75): 4
total number of animals in group ([4]; 1 mg/kg, day 90): 3
median survival post implant ([4]; 3 mg/kg Q4dx4 intraperitoneally): 69.5 days
total number of animals in group ([4]; 3 mg/kg, day 0): 8
total number of animals in group ([4]; 3 mg/kg, day 28): 8
total number of animals in group ([4]; 3 mg/kg, day 33): 7
total number of animals in group ([4]; 3 mg/kg, day 64): 5
total number of animals in group ([4]; 3 mg/kg, day 75): 4
total number of animals in group ([4]; 3 mg/kg, day 90): 3
survival compared to untreated mice ([4]; 0.3, 1 and 3 mg/kg): increased survival
total number of animals in group ([4]; .3 mg/kg, day 0): 8
total number of animals in group ([4]; .3 mg/kg, day 5): 8
total number of animals in group ([4]; .3 mg/kg, day 33): 7
total number of animals in group ([4]; .3 mg/kg, day 35): 6
total number of animals in group ([4]; .3 mg/kg, day 36): 5
total number of animals in group ([4]; .3 mg/kg, day 37): 4
total number of animals in group ([4]; .3 mg/kg, day 69): 3
total number of animals in group ([4]; .3 mg/kg, day 90): 2
delay in tumor growth ([5]; from time to 10× fold change versus untreated, h1F6SEA 10 mg/kg, azacitidine 5 mg/kg): 18%
tumor volume, individual animals ([5]; day 9 post implant): 51.0 mm^3 and 59.2 mm^3 and 59.0 mm^3 and 52.1 mm^3 and 54.1 mm^3 and 58.6 mm^3
tumor volume, individual animals ([5]; day 13 post implant): 47.1 mm^3 and 56.4 mm^3 and 72.6 mm^3 and 48.7 mm^3 and 68.7 mm^3 and 59.9 mm^3
tumor volume, individual animals ([5]; day 16 post implant): 65.3 mm^3 and 60.4 mm^3 and 98.2 mm^3 and 90.8 mm^3 and 83.5 mm^3 and 67.6 mm^3
tumor volume, individual animals ([5]; day 20 post implant): 63.1 mm^3 and 42.0 mm^3 and 165.9 mm^3 and 151.0 mm^3 and 142.8 mm^3 and 93.1 mm^3
tumor volume, individual animals ([5]; day 24 post implant): 161.4 mm^3 and 70.9 mm^3 and 266.6 mm^3 and 336.7 mm^3 and 299.1 mm^3 and 165.4 mm^3
tumor volume, individual animals ([5]; day 27 post implant): 254.6 mm^3 and 0.0 mm^3 and 392.1 mm^3 and 447.0 mm^3 and 337.6 mm^3 and 231.0 mm^3
tumor volume, individual animals ([5]; day 30 post implant): 352.6 mm^3 and 0.0 mm^3 and 661.5 mm^3 and 831.7 mm^3 and 494.8 mm^3 and 365.1 mm^3
tumor volume, individual animals ([5]; day 34 post implant): 666.1 mm^3 and 15.4 mm^3 and 998.9 mm^3 and 1042.3 mm^3 and 655.6 mm^3 and 531.6 mm^3
tumor volume, individual animals ([5]; day 38 post implant): 988.1 mm^3 and 63.1 mm^3 and 1005.8 mm^3 and 751.7 mm^3
tumor volume, individual animals ([5]; day 41 post implant): 66.6 mm^3 and 1024.7 mm^3
tumor growth delay in one mouse of the group ([5]; h1F6SEA 10 mg/kg, extended the length of the study): very robust tumor growth delay
phagocytosis of antibody-coated target cells by macrophages [6]: readily phagocytosed target cells
cell lysis by complement fixation [7]: lysed in an antibody-specific, dose-dependent manner
effect on tumor growth ([8]; antibody 10 mg/kg Q4dx5, azacitidine 2 mg/kg Q1dx5 for 3 cycles): reduce tumor growth
delay in tumor growth ([8]; from time to 10× fold change compared to untreated control): 31%
